Source: patent publication US6677436
Positions count from the first letter of the chain named.

B1: H chain humanized version i/L chain humanized version b antibody (antibody, V domains shown)
VH: QVQLLESGAVLARPGTSVKISCKASGFNIKDYYMHWVKQRPGQGLEWIGGNDPANGHSMYDPKFQGRVTITADTSTSTVFMELSSLRSEDTAVYYCARDSGYAMDYWGQGTLVTVSS
VL: DIQMTQSPSSLSASVGDRVTITCKASQDIKSFLSWYQQKPGKAPKLLIYYATSLADGVPSRFSGSGSGTDYTLTISSLQPEDFATYYCLQHGESPYTFGGGTKVEIK
notes: Expressed from vector N5KG4P (IgG4-type, human Cgamma4 and Ckappa); also called hHvi-hLvb/N5KG4P
B2: H chain humanized version i/L chain humanized version b2 antibody (antibody, V domains shown)
VH: B1 VH
VL: B1 VL with G41E, L46S
notes: Expressed from vector N5KG4P (IgG4-type, human Cgamma4 and Ckappa); also called i-b2; ib2
B3: H chain humanized version a/L chain humanized version a antibody (antibody, V domains shown)
VH: QVQLLESGAVLARPGTSVKISCKASGFNIKDYYMHWVKQRPGQGLEWIGGNDPANGHSMYDPKFQGRAKLTAATSASIAYLEFSSLTNEDSAVYYCARDSGYAMDYWGQGTLVTVSS
VL: B1 VL with Y71F
notes: Expressed from vector N5KG4P (IgG4-type, human Cgamma4 and Ckappa); also called hHva-hLva/N5KG4P
B4: H chain chimeric/L chain humanized version b antibody (antibody, V domains shown)
VH: EVQLQQSGTNLVRPGALVKLSCKGSGFNIKDYYMHWVKQRPEQGLEWIGGNDPANGHSMYDPKFQGKASITADTSSNTAYLQLSSLTSEDTAVYFCARDSGYAMDYWGQGTSVTVSS
VL: B1 VL
notes: Expressed from vector N5KG4P (IgG4-type, human Cgamma4 and Ckappa); also called ch-b; chHv-hLvb/N5KG4P
B5: H chain humanized version b/L chain chimeric antibody (antibody, V domains shown)
VH: B1 VH with S77N, V79A, F80Y, V93I
VL: DIKMTQSPSSMYASLGERVTITCKASQDIKSFLSWYQQKPWKSPKTLIYYATSLADGVPSRFSGSGSGQDYSLTINNLESDDTATYYCLQHGESPYTFGGGTKLEIK
notes: Expressed from vector N5KG4P (IgG4-type, human Cgamma4 and Ckappa); also called b-ch; hHvb-chLv/N5KG4P
B6: H chain humanized version i/L chain chimeric antibody (antibody, V domains shown)
VH: B1 VH
VL: B5 VL
notes: Expressed from vector N5KG4P (IgG4-type, human Cgamma4 and Ckappa); also called i-ch; hHvi-chLv/N5KG4P
B7: H chain humanized version i/L chain humanized version b1 antibody (antibody, V domains shown)
VH: B1 VH
VL: B1 VL with Y36F, A43S, L46T
notes: Expressed from vector N5KG4P (IgG4-type, human Cgamma4 and Ckappa); also called i-b1; hHvi-hLvb1/N5KG4P
B8: H chain humanized version e/L chain chimeric antibody (antibody, V domains shown)
VH: B1 VH with T69S, T74E, S77K, T78I, V79A, F80Y, S84N, Y95F
VL: B5 VL
notes: Expressed from vector N5KG4P (IgG4-type, human Cgamma4 and Ckappa); also called e-ch; hHve-chLv/N5KG4P
B9: H chain humanized version b/L chain humanized version c antibody (antibody, V domains shown)
VH: B1 VH with S77N, V79A, F80Y, V93I
VL: B1 VL with F83I
notes: Humanized antibodies were expressed from vector N5KG4P (IgG4-type); the construction of the b-c plasmid itself is not described; also called b-c
B10: H chain chimeric/L chain humanized version c antibody (antibody, V domains shown)
VH: B4 VH
VL: B1 VL with F83I
notes: Expressed from vector N5KG4P (IgG4-type, human Cgamma4 and Ckappa); also called ch-c; chHv-hLvc/N5KG4P
B11: H chain humanized version d/L chain chimeric antibody (antibody, V domains shown)
VH: B1 VH with T74E, V79A, F80Y, T91S, Y95F
VL: B5 VL
notes: Expressed from vector N5KG4P (IgG4-type, human Cgamma4 and Ckappa); also called d-ch; hHvd-chLv/N5KG4P
B12: H chain humanized version b/L chain humanized version a antibody (antibody, V domains shown)
VH: B1 VH with S77N, V79A, F80Y, V93I
VL: B1 VL with Y71F
notes: Expressed from vector N5KG4P (IgG4-type, human Cgamma4 and Ckappa); also called b-a; hHvb-hLva/N5KG4P
B13: H chain humanized version d3/L chain humanized version b antibody (antibody, V domains shown)
VH: B1 VH with K38R, R40A, T74E, V79A, F80Y, T91S, Y95F
VL: B1 VL
notes: Expressed from vector N5KG4P (IgG4-type, human Cgamma4 and Ckappa); also called d3-b; hHvd3-hLvb/N5KG4P
B14: H chain chimeric/L chain humanized version a antibody (antibody, V domains shown)
VH: B4 VH
VL: B1 VL with Y71F
notes: Expressed from vector N5KG4P (IgG4-type, human Cgamma4 and Ckappa); also called chHv-hLva/N5KG4P
B15: H chain humanized version b3/L chain humanized version b antibody (antibody, V domains shown)
VH: B1 VH with K38R, R40A, S77N, V79A, F80Y, V93I
VL: B1 VL
notes: Expressed from vector N5KG4P (IgG4-type, human Cgamma4 and Ckappa); also called b3-b; hHvb3-hLvb/N5KG4P
B16: H chain humanized version b/L chain humanized version b2 antibody (antibody, V domains shown)
VH: B1 VH with S77N, V79A, F80Y, V93I
VL: B1 VL with G41E, L46S
notes: Expressed from vector N5KG4P (IgG4-type, human Cgamma4 and Ckappa); also called b-b2; hHvb-hLvb2/N5KG4P
B17: H chain humanized version g/L chain humanized version b antibody (antibody, V domains shown)
VH: B1 VH with R67K, V68A, I70L, T74E, T76S, V79A, F80Y, E82Q, T91S, Y95S
VL: B1 VL
notes: Expressed from vector N5KG4P (IgG4-type, human Cgamma4 and Ckappa); also called g-b; hHvg-hLvb/N5KG4P
B18: H chain humanized version a/L chain chimeric antibody (antibody, V domains shown)
VH: B3 VH
VL: B5 VL
notes: Expressed from vector N5KG4P (IgG4-type, human Cgamma4 and Ckappa); also called a-ch; hHva-chLv/N5KG4P
B19: H chain humanized version c/L chain chimeric antibody (antibody, V domains shown)
VH: QVQLLESGAVLARPGTSVKISCKASGFNIKDYYMHWVKQRPGQGLEWIGGNDPANGHSMYDPKFQGRVTMLVDTSKNQFSLRLSSVTAADTAVYYCARDSGYAMDYWGQGTLVTVSS
VL: B5 VL
notes: Expressed from vector N5KG4P (IgG4-type, human Cgamma4 and Ckappa); also called c-ch; hHvc-chLv/N5KG4P

Target: T1, soluble human TF (human TF amino acids 1-219 with the FLAG peptide at the C-terminal) (human, UniProt P13726 33-251)
T1 construct: Expressed in CHO cells and purified; The entry is the whole soluble TF construct (TF 1-219 plus FLAG peptide M2); The entry may include the signal peptide; also called shTF; soluble TF
T1 sequence (P13726 other isoform, or with tags, fused parts or gaps limits assumed): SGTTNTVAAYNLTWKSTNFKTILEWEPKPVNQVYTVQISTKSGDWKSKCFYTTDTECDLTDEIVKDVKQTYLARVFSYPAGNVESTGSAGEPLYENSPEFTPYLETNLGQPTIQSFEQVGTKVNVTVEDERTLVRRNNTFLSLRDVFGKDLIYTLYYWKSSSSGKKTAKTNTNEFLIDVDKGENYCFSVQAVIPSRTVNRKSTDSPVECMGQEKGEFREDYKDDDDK
Experiment: BIACORE; antibody captured on Protein G chip, soluble TF as analyte; mean ± SD, n = 3

| Kd [nM] | koff [s⁻¹] | kon [M⁻¹ s⁻¹] | Binder |
| --- | --- | --- | --- |
| 1.39 | 0.000649 | 467000 | B1 |
| 1.17 | 0.000635 | 544000 | B2 |

Target: T2, human tissue factor (TF) on human bladder carcinoma cells J82 (human, UniProt P13726 33-295)
T2 construct: whole, on cells; J82 is described as a TF-high expression cell line; also called the antigen; J82 (ATCC HTB-1)
T2 sequence (P13726 33-295): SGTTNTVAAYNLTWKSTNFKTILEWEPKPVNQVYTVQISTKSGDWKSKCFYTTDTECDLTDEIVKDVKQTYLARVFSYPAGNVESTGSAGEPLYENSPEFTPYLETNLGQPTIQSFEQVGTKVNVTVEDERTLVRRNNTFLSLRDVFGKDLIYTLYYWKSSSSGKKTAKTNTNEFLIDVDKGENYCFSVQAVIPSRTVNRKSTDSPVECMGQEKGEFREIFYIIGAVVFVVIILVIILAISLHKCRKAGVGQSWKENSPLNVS
Experiment: cell ELISA on fixed J82 cells

| binding result | Binder |
| --- | --- |
| binds | B3 |
| binds | B4 |
| binds | B5 |
| binds | B6 |
| binds | B7 |
| binds | B8 |
| binds | B9 |
| binds | B10 |
| binds | B11 |
| binds | B12 |
| binds | B13 |
| binds | B14 |
| binds | B15 |
| binds | B16 |
| binds | B17 |
| binds | B18 |
| binds | B19 |

Target: recombinant Protein G (UniProt P19909)
Experiment: BIACORE; 10 µl of 72 nM antibody injected over Protein G immobilized on CM5 chip

| RU bound [RU] | Binder |
| --- | --- |
| 1000 | B2 |
